Results: patent US20200347130A1 (JIANGSU HENGRUI MEDICINE, published 2020)

B1: h1721-003 (antibody, V domains shown)
VH: EVTLKESGPVLVKPTETLTLTCTVSGFSLSSYGVNWIRQPPGKALEWLGVIWGDGSTNYHSALISRLTISKDTSKSQVVLTLTNMDPVDTATYYCAKNYFYGSRYGYAMDSWGQGTTVTVSS
VL: DIQMTQSPSSLSASVGDRVTITCRASENIYSSLAWYQQKPGKAPKLLIYNAKTLIEGVPSRFSGSGSGTDFTLTISSLQPEDFATYYCQHHYGTPYTFGGGTKVEIK
notes: Only variable regions are tied to this name; also called M721-003
B2: h1719-014 (antibody, V domains shown)
VH: EVTLKESGPVLVKPTETLTLTCTVSGFSLSSYGVSWVRQPPGKGLEWLGVIWGDGNTNYHSVLISRLTISKDTSKSQVVLTLTNMDPVDTATYYCAKNYYYGSRYGYPLDYWGQGTTVTVSS
VL: DIQMTQSPSSVSASVGDRVTITCKATQDVGTAVAWYQQKPGKSPKLLIYWASTRHTGVPERFSGSGSGTDFTLTISSLQPEDFATYFCQQYGSSVLTFGGGTKVEIK
notes: Only variable regions are tied to this name; also called M719-014
B3: h1718-012 (antibody, V domains shown)
VH: EVQLVQSGAEVKKPGASVKVSCKASGYTITDYNMNWVRQAPGQRLEWIGVINPSYGITDYNQNFKDRVTITVDTSASTAYMELSSLRSEDTAVYYCAIQLRLPGYFDVWGQGTTVTVSS
VL: DIQMTQSPSSLSASVGDRVTITCKASQDINQYLNWFQQKPGKAPKTLIYRANRLVDGVPSRFSGSGSGQDYTLTISSLQPEDFATYYCLKYDEFPYTFGGGTKVEIK
notes: Only variable regions are tied to this name
B4: ch1719 (antibody, human IgG4 S228P, kappa, V domains shown)
VH: QVQLKESGPGLVAPSQSLSITCTVSGFSLISYGVSWVRQPPGKGLEWLGVIWGDGNTNYHSVLISRLSIRKDDSKSQVFLKLNSLQTDDTATYYCAKNNYYGSRYGYPMDYWGQGTSVTVSS
VL: DIVMTQSHKFMSTSVGDRVSITCKATQDVGTAVAWYQQKPGHSPKLLIYWASTRHTGVPERFTGSGSGTDFTLTIDNVQSEDLADYFCQQYGSSVLTFGAGTKVELRR
notes: also called chimeric antibody corresponding to m1719
B5: ch1721 (antibody, human IgG4 S228P, kappa, V domains shown)
VH: QVQLKESGPGLVAPSQSLSITCTVSGFSLISYGVNWVRQPPGKGLEWLGVIWGDGSTNYHSALISRLSISKDDSKSQVFLNLNSLQTDDTATYYCAKNYFYGSRYGYAMDSWGQGISVTVSS
VL: DIQMTQSPASLSAAVGETVTITCRASENIYSSLAWYQQKQGKSPQLLVYNAKTLIETVASRFSGSGSGTQYSLKINSLQPEDFGSFYCQHHYGTPYTFGGGTKLEIKR
notes: also called chimeric antibody corresponding to m1721
B6: h1722-010 (antibody, V domains shown)
VH: EVQLVQSGAEVKKPGSSVKVSCKASGGTFSDYWMHWVRQAPGQGLEWIGMLHPNSGTTSFNEKFKIRVTITADKSTSTAYMELSSLRSEDTAVYYCASDYSGPFAYWGQGTLVTVSS
VL: DIQLTQSPSSLSASVGDRVTITCSASSSVNYIHWYQQKPGKAPKRWIFDTSKLASGVPSRFSGSGSGTDYTLTISSLQPEDFATYYCQQWRSNPLTFGQGTKLEIK
notes: Only variable regions are tied to this name; also called M722-010
B7: ch1720 (antibody, human IgG4 S228P, kappa, V domains shown)
VH: EFQLQQSGPELVKPGASVKISCKASAYSLTDYNMNWVKQSNGKSLEWIGVINPSYGISSYNQKFKGKATLTVDQSSSTAYMHLNSLTSEDSAVYYCARQLRLPGYFDVWGTGTTVTVSS
VL: DIKMTQSPSSKNASLGERVTITCKASQDINSYLNWFQQKPGKSPKTLIYRASRLVDGVPSRFSGSGSGQDYSLTISSLEYEDMGIYYCLKYDEFPYTFGGGTKLEIKR
notes: also called chimeric antibody corresponding to m1720
B8: ch1718 (antibody, human IgG4 S228P, kappa, V domains shown)
VH: EFQLQQSGPELVKPGASVKISCKASAYSITDYNMNWVKQSNGKSLEWIGVINPSYGITDYNQNFKDKATLTVDQSSSTAYMQLNSLTSEDSAVYYCAIQLRLPGYFDVWGTGTTVIVSS
VL: DIKMTQSPSSMYASLGERVTITCKASQDINNYLNWFQQKPGKSPKTLIYRANRLVDGVPSRFSGSGSGQDYSLTISSLEYEDMGIYYCLKYDEFPYTFGGGTKVEIKR
notes: also called chimeric antibody corresponding to m1718

Assays:
[1] = molecular target: T1, Biotinylated CD96 antigen (human, UniProt P40200-2 22-503, limits assumed, biotinylated); test: competition ELISA, antibody B premixed with biotinylated CD96; competitor (coated antibody A): ch1720
T1 sequence (looked up): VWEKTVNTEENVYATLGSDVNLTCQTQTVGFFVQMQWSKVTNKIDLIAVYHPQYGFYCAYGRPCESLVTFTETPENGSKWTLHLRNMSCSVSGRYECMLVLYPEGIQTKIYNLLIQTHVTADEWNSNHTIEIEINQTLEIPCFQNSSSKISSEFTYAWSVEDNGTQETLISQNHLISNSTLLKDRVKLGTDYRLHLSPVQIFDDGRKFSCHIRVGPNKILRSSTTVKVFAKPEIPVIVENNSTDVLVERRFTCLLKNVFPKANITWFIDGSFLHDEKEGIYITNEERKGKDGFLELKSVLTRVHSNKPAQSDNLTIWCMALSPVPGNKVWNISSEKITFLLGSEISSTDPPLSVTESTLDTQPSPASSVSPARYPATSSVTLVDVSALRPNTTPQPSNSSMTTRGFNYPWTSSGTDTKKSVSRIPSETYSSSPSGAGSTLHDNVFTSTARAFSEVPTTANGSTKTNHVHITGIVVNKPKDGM
Experimental: (§1) Competitive assays of different antibodies binding to CD96 protein were used to classify binding epitopes of the antibodies. The specific experimental methods are as follows:
(§2) Antibody A was diluted to a concentration of 2 μg/ml with PBS buffer (Shanghai Yuanpei Biotechnology Co., Ltd. Cat No. B320), pH 7.4, added to a 96-well microtiter plate (Corning, Cat No. CLS3590-100EA) at a volume of 50 μl/well, and coated at 4° C. overnight. After discarding the liquid, 250 μl/well of 5% skim milk (BD skim milk, Cat No. 232100) blocking solution diluted with PBS was added, and the plate was incubated at 37° C. for 3 hours. After blocking, the blocking solution was discarded, and the plate was washed 5 times with PBST buffer (pH 7.4 PBS containing 0.05% tween-20) and stored for later use. Antibody B was diluted to 40 μg/ml and 8 μg/ml with 1% BSA, and Biotinylated CD96 antigen was simultaneously diluted to 4 μg/mL. Subsequently, antibody B and antigen were mixed in a 1:1 volume ratio, pre-incubated at 37° C. for 45 minutes, added into the enzyme plate coated with antibody A, thus incubating the plate in an incubator at 37° C. for 1.5 hours. After incubation, the plate was washed for 5 times with PBST, and 50 μl/well of HRP-labeled streptavidin (Sigma, Cat No. 52438) diluted with sample dilution was added, followed by incubating the plate at 37° C. for 1 hour. After washing the plate 5 times with PBST, 50 μl/well of TMB chromogenic substrate (KPL, Cat No. 52-00-03) was added for color development, followed by adding 50 μl/well of 1M H₂SO₄ to stop the reaction. The absorption value was read at 450 nm with a NOVOStar microplate reader, and the OD value was used to determine whether A and B CD96 antibodies compete with each other. Antibodies that compete with each other fall into the same class of antibodies, otherwise belong to different classes of antibodies (see FIG. 3 and Table 18).

[2] = molecular target: T1, Biotinylated CD96 antigen; test: competition ELISA, antibody B premixed with biotinylated CD96; competitor (coated antibody A): h1719-014
Experimental: as §1, §2

[3] = molecular target: T1, Biotinylated CD96 antigen; test: competition ELISA, antibody B premixed with biotinylated CD96; competitor (coated antibody A): h1722-010
Experimental: as §1, §2

[4] = molecular target: T2, CD96 epitope peptide #3 IAVYHPQYGFYCAYGRPCES (47-66) (human); test: FACS on CD96-CHOs cells after pre-incubation of the antibody with the peptide; a fall of the MFI against antibody alone shows that the peptide occupies the antibody
T2 construct: also called 3# peptides; #3 antigen fragment
T2 peptide: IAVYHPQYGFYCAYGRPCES
Experimental: In order to verify that the binding of the antibody to CD96 protein polypeptide fragment is specific, we designed the following FACS for verification. While polypeptide fragments were incubated and bound to an antibody, epitopes of the antibody binding to CD96 protein were occupied, and then the signal of the antibody binding to CD96 protein on the cell surface decreased. The specific experimental methods are as follows:
The antibody samples were diluted to 1.2 μg/mL with 1% BSA, and the peptides were diluted to 40 μg/mL synchronously. The peptides and antibody sample were mixed at a volume ratio of 1:1 and pre-incubated at 37° C. for 90 minutes. CD96-CHOs cells were collected and washed once in PBS, then dispensed according to 0.5×10⁶/test. The cells with 100 μL of peptide-antibody mixture were resuspended, incubated at 4° C. for 1 hour, followed by washing 3 times with 1% BSA. Cells were resuspended with 100 μL dilution (1:400, 1:40, 1:100) of Alexa Fluor 488 anti-human IgG Fc (thermofisher, A-11013), PE goat anti-mouse IgG (Biolegend, Cat No. 405307), or PE goat anti-Rat IgG (Biolegend, Cat No. 405406), incubated at 4° C. for 40 minutes, followed by washing 3 times with 1% BSA. The cells were resuspended with 200 μL of 1% BSA, MFI of each sample was read on a flow cytometer BD FACSCanto II, and the data were analyzed with GraphPad Prism 5 to make a histogram. MFI difference between the sample without polypeptides incubation and the one incubated with polypeptides was used to determine the antigenic epitope recognized by the CD96 antibody.

| Binder | competition (percent) [1] | competition (percent) [2] | competition (percent) [3] | binding result [4] |
| --- | --- | --- | --- | --- |
| B1 | 92.6% | 96% | -0.3% |  |
| B2 | 67.7% | 100% | 28.6% |  |
| B3 | 103% | 94.8% | -11.1% |  |
| B4 |  |  |  | binds |
| B5 |  |  |  | binds |
| B6 | -11.5% | 8.5% | 100% |  |
| B7 | 100% | 92.3% | -2.4% |  |
| B8 |  |  |  | binds |
